{"source": "patent US20140322315A1", "about": "“CYSTEAMINE AND/OR CYSTAMINE FOR TREATING ISCHEMIC INJURY” (The Regents of the University of California, priority 2011, published 2014)", "origin": "cited, not measured here", "test_system": "acute ischemic stroke", "data": [{"molecule": "tPA: tissue plasminogen activator, FDA approved 1996 as therapy for acute ischemic stroke (protein, UniProt P00750 36-562, looked up) Tissue-type plasminogen …: SYQVICRDEKTQMIYQQHQSWLRPVLRSNRVEYCWCNSGRAQCHSVPVKSCSEPRCFNGGTCQQALYFSDFVCQCPEGFAGKCCEIDTRATCYEDQGISYRGTWSTAESGAECTNWNSSALAQKPYSGRRPDAIRLGLGNHNYCRNPDRDSKPWCYVFKAGKYSSEFCSTPACSEGNSDCYFGNGSAYRGTHSLTESGASCLPWNSMILIGKVYTAQNPSAQALGLGKHNYCRNPDGDAKPWCHVLKNRRLTWEYCDVPSCSTCGLRQYSQPQFRIKGGLFADIASHPWQAAIFAKHRRSPGERFLCGGILISSCWILSAAHCFQERFPPHHLTVILGRTYRVVPGEEEQKFEVEKYIVHKEFDDDTYDNDIALLQLKSDSSRCAQESSVVRTVCLPPADLQLPDWTECELSGYGKHEALSPFYSERLKEAHVRLYPSSRCTSQHLLNRTVTDNMLCAGDTRSGGPQANLHDACQGDSGGPLVCLNDGRMTLVGIISWGLGCGQKDVPGVYTKVTNYLDWIRDNMRP", "values": [{"measurement": "improvement in clinical outcome", "setting": "some, but not all, of the controlled trials in acute ischemic stroke", "result": "30-55%"}, {"measurement": "complete resolution of symptoms, share of the time", "setting": "thrombolytic therapy with tPA", "result": "less than 40%"}]}]}
